Laboratory results taken from publication PMC5085234, “Monomeric gremlin is a novel vascular endothelial growth factor receptor-2 antagonist” (Oncotarget, 2016).
Positions count from the first letter of the chain named. In names and notes the source's numbering stands.

T1: his-tagged gremlin^C141A mutant, rat (rat, UniProt O35793 25-184, C141A)
T1 construct: secreted into the medium; monomer; also called gremlin^C141A monomer; monomeric gremlin^C141A; not shown: His tag, C-terminal, kept
T1 sequence (looked up): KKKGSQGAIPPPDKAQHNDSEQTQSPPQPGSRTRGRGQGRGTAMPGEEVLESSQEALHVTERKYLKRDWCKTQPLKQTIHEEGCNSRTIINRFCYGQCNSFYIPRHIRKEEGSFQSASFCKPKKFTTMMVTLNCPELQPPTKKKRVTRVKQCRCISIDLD

B1: his-tagged gremlin^C141A mutant, rat (natural protein)
chain: T1 sequence (looked up)
B2: his-tagged wild-type gremlin (gremlin^WT), rat (natural protein, UniProt O35793 25-184, looked up)
chain: T1 sequence (looked up) with A117C
notes: secreted into the medium; covalent homodimer through Cys141; The IMAC-purified preparation holds monomer and dimer (used for non-reducing SDS-PAGE and SEC); the heparin 1.2 M NaCl fraction holds only the disulfide-linked dimer (98.5% purity) and is the form used in ELISA, SPR and cell assays; N-glycosylated and non-glycosylated forms are present; also called gremlin^WT dimer; dimeric gremlin^WT; …
B3: endogenous murine gremlin (natural protein, UniProt O70326 25-184, looked up)
chain: T1 sequence (looked up) with A117C
notes: gremlin, mouse, endogenous; immunoprecipitated with anti-gremlin antibody; Seen as 20-24 kDa monomers and 40-44 kDa dimers under non-reducing conditions; source: endogenous, lysates of healthy C57BL/6 murine organs; endogenous, conditioned medium of FGF2-T-MAE cells
B4: human BMP4 (ligand, UniProt P12644 293-408, looked up)
chain: SPKHHSQRARKKNKNCRRHSLYVDFSDVGWNDWIVAPPGYQAFYCHGDCPFPLADHLNSTNHAIVQTLVNSVNSSIPKACCVPTELSAISMLYLDEYDKVVLKNYQEMVVEGCGCR
notes: bone morphogenetic protein 4, human; the ELISA paragraph says only human BMP4; also called immobilized BMP4; source: bought: R&D

Assays:
[1] = target: extracellular domain D1-7 of human VEGFR2 (ECD-VEGFR2) (human); test: SPR; BIAcore X; ECD-VEGFR2 immobilized on CM5 sensorchip (0.036-0.064 pmol/mm^2); gremlin 100 ng/mL to 4 ug/mL injected in HBS-EP; equilibrium responses fitted to the Langmuir equation for monovalent binding
[2] = target: the molecule itself; test: non-reducing SDS-PAGE with Western blot; recombinant his-tagged gremlin purified by IMAC (and heparin-affinity chromatography), SDS-PAGE without beta-mercaptoethanol, anti-gremlin WB, silver staining
[3] = target: the molecule itself; test: non-reducing SDS-PAGE with Western blot; conditioned medium of FGF2-T-MAE cells (treated with increasing H2O2 for 1 hour, then 4 hours fresh medium) immunoprecipitated with anti-gremlin antibody, WB under non-reducing conditions
[4] = target: B2; test: ELISA; 96-well plates coated with 250 ng/mL of human BMP4, increasing concentrations of gremlin, bound gremlin detected with anti-gremlin antibody; details: both partners purified
[5] = target: T1, his-tagged gremlin^C141A mutant, rat; test: as above; details: both partners purified

Binder: B1
Kd [1]: 73 nM

Binder: B2
Kd [1]: 73 nM
stoichiometry N [2]: 2

Binder: B3
stoichiometry N [3]: 2

Binder: B4
binding result [4]: binds
binding result [5]: binds
